Experimental data published in patent publication US20210017289A1 (AbbVie / Abbott, published 2021).

Tests used:
293s-huOX40-muCRDIII = molecular target: T1, 293s-huOX40-muCRDIII; experiment: flow cytometry on 293s transfectants, Hu3738 added at 2 µg/mL, Cy5 donkey anti-human IgG
T1 construct: cell-surface chimera, named on the sheet by its cell line; also called human OX40 chimera with murine CRDIII replacing human CRDIII
T1 receptor chain: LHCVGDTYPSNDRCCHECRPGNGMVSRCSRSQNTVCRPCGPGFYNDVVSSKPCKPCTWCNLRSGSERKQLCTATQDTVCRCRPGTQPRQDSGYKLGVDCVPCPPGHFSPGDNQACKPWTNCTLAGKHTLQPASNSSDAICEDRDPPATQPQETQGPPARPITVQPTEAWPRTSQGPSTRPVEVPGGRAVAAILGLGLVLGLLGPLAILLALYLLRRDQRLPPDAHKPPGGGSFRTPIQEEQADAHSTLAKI
Procedure: (§1) After plating cells, 50 μL of Hu3738 or isotype control antibody at 2 μg/mL were added to corresponding wells in duplicate for each cell line and allowed to incubate on ice for 30 minutes. Following incubation, 200 μL of Dulbecco's Phosphate Buffered Saline (DPBS) was added into each well and plates were spun down at 1000 rpm for three minutes. Supernatants from each well were removed and 50 μL of Cy5-Donkey anti-Human IgG (Jackson ImmunoResearch) secondary antibody was added at a 1:250 dilution, which was then incubated for 30 minutes on ice in the dark. Following the incubation period, 200 μL of DPBS was added prior to spinning down the plate at 1000 rpm for three minutes. Supernatants were removed and each well was re-suspended with 100 μL of DPBS+1% Formaldehyde. Samples were analyzed on the dual laser FACSCalibur flow cytometer (Becton Dickinson).

293s-huOX40-muCRDI = molecular target: T2, 293s-huOX40-muCRDI; experiment: as above
T2 construct: cell-surface chimera, named on the sheet by its cell line; also called human OX40 chimera with murine CRDI replacing human CRDI
T2 receptor chain: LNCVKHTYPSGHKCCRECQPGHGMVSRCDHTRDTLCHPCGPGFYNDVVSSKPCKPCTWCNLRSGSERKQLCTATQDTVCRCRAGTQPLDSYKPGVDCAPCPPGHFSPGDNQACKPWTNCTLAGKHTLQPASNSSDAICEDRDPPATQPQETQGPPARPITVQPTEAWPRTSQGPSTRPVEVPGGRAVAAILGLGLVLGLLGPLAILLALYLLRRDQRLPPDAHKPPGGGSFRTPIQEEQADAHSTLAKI
Procedure: as §1

[1] = molecular target: T3, human OX40 expressed on cells (human, UniProt P43489 29-277); experiment: cell-based or functional assay
T3 sequence: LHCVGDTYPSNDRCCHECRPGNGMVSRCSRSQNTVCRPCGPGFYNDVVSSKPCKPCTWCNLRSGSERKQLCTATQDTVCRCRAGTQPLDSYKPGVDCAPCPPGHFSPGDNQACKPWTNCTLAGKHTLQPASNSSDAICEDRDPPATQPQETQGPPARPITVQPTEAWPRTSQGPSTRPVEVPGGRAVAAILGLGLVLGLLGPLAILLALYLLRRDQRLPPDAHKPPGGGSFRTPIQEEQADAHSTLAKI

[2] = molecular target: T4, recombinant soluble human OX40 ECD (residues 1-216) (human, UniProt P43489 29-216); experiment: SPR (Biacore T200, 25 °C), antibody captured by anti-Fc, OX40 ECD as analyte
T4 construct: Purchased from Creative Biomart and further purified by gel filtration; also called recombinant extracellular domain of human OX40
T4 sequence: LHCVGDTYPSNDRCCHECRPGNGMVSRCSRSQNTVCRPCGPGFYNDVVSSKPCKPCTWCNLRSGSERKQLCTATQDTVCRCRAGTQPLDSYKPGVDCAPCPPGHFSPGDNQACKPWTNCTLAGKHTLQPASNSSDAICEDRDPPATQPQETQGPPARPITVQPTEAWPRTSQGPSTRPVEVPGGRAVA
Procedure: The binding kinetics of an anti-OX40 antibody to recombinant soluble OX40 ECD (extracellular domain) were determined by surface plasmon resonance-based measurements made on a Biacore T200 instrument (GE Healthcare) at 25° C. using an anti-Fc capture assay approach. Recombinant extracellular domains (ECDs) of human OX40 (residues 1-216) and rhesus macaque OX40 (residues 28-214) were purchased (Creative Biomart) and further purified by gel filtration using Superdex200 (GE Healthcare) in 10 mM 4-(2-hydroxyethyl)-1-piperazineethanesulfonic acid (HEPES), pH 7.4, 150 mM NaCl, 3 mM ethylenediaminetetraacetic acid (EDTA). Rhesus macaque (Macaca mulatta) OX40 is identical to cynomolgus monkey (Macaca fascicularis) OX40 (SEQ ID NO:2) at the amino acid level. Chip preparation and binding kinetic measurements were made in the assay buffer HBS-EP+(10 mM HEPES, pH 7.4, 150 mM NaCl, 3 mM EDTA, 0.05% Tween 20). For anti-Fc capture chip preparation, approximately 2000 Resonance Units (RU) of goat anti-human IgG Fc polyclonal antibody (Thermo Fisher Scientific Inc.), diluted to 25 μg/mL in 10 mM sodium acetate (pH 4.5), was directly immobilized across a CMS biosensor chip using a standard amine coupling kit according to manufacturer's instructions and procedures. Unreacted moieties on the biosensor surface were blocked with ethanolamine. For binding kinetics measurements each assay cycle consisted of the following steps: 1) capture of test anti-OX40 antibody on test surface only; 2) analyte injection (OX40 ECD or buffer only) over both reference and test surface, 240 μL at 80 μL/min, after which the dissociation was monitored for 900 seconds at 80 μL/min; 3) regeneration of capture surface by 10 mM Glycine-HCl, pH 1.5 injections over both reference and test surface. During the assay, all measurements were referenced against the capture surface alone (i.e., with no captured test antibody) and buffer-only injections were used for double referencing. OX40 injections ranged in concentration from 900 nM or 300 nM to 11.11 nM in a randomized 9- or 3-fold dilution series, respectively. Data were processed and fitted globally to a 1:1 binding model using Biacore T200 Evaluation software to determine the binding kinetic rate constants, kₐ (M⁻¹s⁻¹) and kd (s¹), and the equilibrium dissociation constant KD (M).

binding result (293s-huOX40-muCRDIII): binds
binding result (293s-huOX40-muCRDI): binds
EC50 With Cross-linker (nM), NF-κB signaling [1]: 0.088 nM
EC50 Without Cross-linker (nM), NF-κB signaling [1]: 20 nM
Kd [2]: 42 nM
koff [2]: 0.042 s⁻¹
B1: Hu3738 (antibody, V domains shown)
VH: EVQLVESGGGLVQPGGSLRLSCAASGFTFSRYGMSWVRQAPGKGLELVATINSNGGRTYYPDSVKGRFTISRDNAKNSLYLQMNSLRAEDTAVYYCAREGITTAYAMDYWGQGTTVTVSS
VL: DIVMTQSPDSLAVSLGERATINCKASQSVDYDGDSYMHWYQQKPGQPPKLLIYAASILESGVPDRFSGSGSGTDFTLTISSLQAEDVAVYYCQQSNEDPRTFGGGTKVEIKR
notes: Humanized antibody; also called exemplary anti-OX40 antibody Hu3738; Hu3738 VH.1b / Hu3738 VL.1
